This is an account of results in patent US9012606B2, “In vivo half life increased fusion protein or peptide maintained by sustained in vivo release, and method for increasng in vivo half-life using same” (Alteogen, Inc., priority 2009, dated 2015).

The conditions of data set [1]: Weweres et al. 1987; cited from earlier work.
Data set [2] can be described thus: Pharmacokinetics of hGH and hGH/alpha-1 antitrypsin fusions (serum ELISA). Type of data set: in vivo. The conditions noted are these: Sprague-Dawley rats, subcutaneous, 200 μg/kg (Scitropin control). The protocol: An anti-human growth hormone monoclonal antibody (Medix Biochemica, Finland) was diluted to a concentration of 1-5 μg/mL in phosphate buffered saline (PBS) and the dilution was aliquoted in an amount of 100 μL/well onto a 96-well plate (Nunc, Denmark) and incubated at room temperature for 15-18 hrs. After the antibody remaining suspended was removed, PBS containing 1% bovine serum albumin was plated in an amount of 250 μL/well and incubated at room temperature for 2 hours. The plates were washed three times with wash buffer (0.05% Tween 20, PBS) and the solution was aspirated. Samples were diluted in PBS containing 1% bovine serum albumin and added to the 96-well plates before incubation at room temperature for 2 hrs. The 96-well plates were washed five times with wash buffer and 100 μL of the human growth hormone monoclonal antibody-biotin conjugate prepared using sulfo-NHS-biotin (Pierce biotechnology, U.S.A.) was added to each well of the 96-well plates and then incubated at room temperature for 2 hrs. The plates were washed five times with wash buffer and incubated with streptabidin-HRP at room temperature for 30 min. Again, the plates were washed five times with wash buffer and reacted with 100 μL of a mixture of TMB (3,3′,5,5′-tetramethylbenzidine) and hydrogen peroxide per well for 30 min in a dark place. To each well was added 100 μL of 1 M sulfuric acid to terminate the reaction, followed by measuring absorbance at 450 nm on a VersaMax microplate reader (Molecular Device, U.S.A.). Values for each sample were calculated by regression analysis after a standard curve was plotted for a reference material.
Sprague-Dawley rats were used as experimental animals and three of them were administered with human growth hormone while five rats were assigned to each of the fusion-administered groups. The human growth hormone/alpha-1 antitrypsin fusion [T109wt: α1AT/hGH], the human growth hormone/alpha-1 antitrypsin monovariant fusion [T109: α1AT(P357N)/hGH], and the human growth hormone/alpha-1 antitrypsin divariant fusion [T109T: α1AT(P357N, S359T)/hGH], all prepared in Examples 1-3, were subcutaneously injected at a dose of 720 μg/kg into respective groups of Sprague-Dawley rats. The samples were diluted in PBS before injection. Blood samples were taken at 0, 1, 2, 4, 8, 12, 16, 24, 30 and 48 hrs after the injection, and centrifuged to obtain sera. For a control, Scitropin (SciGen, Singapore), a kind of human growth hormone, was subcutaneously injected at a dose of 200 μg/kg. PBS was used as a diluent. Blood samples were taken at 0, 0.33, 1, 2, 5, 8, 12, 18, 24, 30 and 48 hrs after the injection, and centrifuged to obtain sera. Each sample was analyzed in the same manner as the enzyme immunoassay of Test Example 1.

Data set [3] is described as follows: In vivo activity: body weight change in pituitary gland-removed rats. Further details: species or system Sprague-Dawley rats. The conditions noted are these: subcutaneous 5 μg per rat every day (Eutropin), day 7. On the procedure:
Pituitary gland-removed Sprague-Dawley rats were used as experimental animals and divided into three groups of seven. To the hypophysectomyzed Sprague-Dawley rats, the human growth hormone/alpha-1 antitrypsin monovariant fusion [T109: α1AT(P357N)/hGH] prepared in Example 2 and human growth hormone (Eutropin, LG Life Sciences Ltd, Korea) were subcutaneously injected at doses of 18 μg and 5 μg per rat, respectively, every day. For a control, PBS was used. The rats were weighed every day after being injected.

Data set [4] can be described thus: Pharmacokinetics of IFN-α and IFN-α/alpha-1 antitrypsin monovariant fusion (serum ELISA). Type of data set: in vivo. The conditions noted are these: Sprague-Dawley rats, subcutaneous, 60 μg/kg (Intermax alpha control). The protocol:
The enzyme immunoassay of human interferon alpha (IFN-α) and human interferon alpha/alpha-1 antitrypsin monovariant fusion was conducted with Human IFN-α Matched Antibody Pairs for ELISA (bender Medsystems, Austria). The IFN-α antibody (10 μg/ml) was allowed to adhere to 96-well plates and blocked as described in Test Example 1-1. A dilution of the sample was reacted with the antibody at room temperature for 2 hrs with shaking. An anti-IFN-α-HRP conjugate was plated in an amount of 50 μL/well and reacted with the antibody at room temperature for 2 hrs with shaking. Subsequent processes were conducted in the same manner as in Test Example 1-1.
Sprague-Dawley rats were used as experimental animals and five rats were assigned to each test group. The human interferon alpha/alpha-1 antitrypsin monovariant fusion [T502: α1AT(P357N)/IFN-α] prepared in Example 4 was subcutaneously injected at a dose of 200 μg/kg into Sprague-Dawley rats of one test group, 0, 0.33, 1, 2, 5, 8, 12, 18, 24, 30, 48, 72 and 96 hrs after which blood samples were taken, and centrifuged to obtain sera. […] Each sample was analyzed in the same manner as the enzyme immunoassay of Test Example 1.

The nature of data set [5]: Pharmacokinetics of G-CSF and G-CSF/alpha-1 antitrypsin variant fusions (serum ELISA). Format: in vivo. The following applies: Sprague-Dawley rats, subcutaneous. The protocol: The same procedure as in Test Example 1 was repeated with the exception that an anti-granulocyte colony-stimulating factor (G-CSF) monoclonal antibody (RND systems, U.S.A.), instead of the anti-human growth hormone antibody, was diluted to a concentration of 1-5 μg/mL and granulocyte colony-stimulating factor polyclonal antibodies-biotin conjugate (RND systems, U.S.A.), instead of the human growth hormone monoclonal antibody-biotin conjugate, was used.
Sprague-Dawley rats were used as experimental animals and three of them were administered with granulocyte colony-stimulating factor while five rats were assigned to each of the fusion-administered groups. The granulocyte colony-stimulating factor/alpha-1 antitrypsin divariant fusion [T602S: α1AT(P357N, C232S)/G-CSF], and granulocyte colony-stimulating factor/alpha-1 antitrypsin trivariant fusion [T602ST: α1AT(P357N, C232S, S359T)/G-CSF], all prepared in Examples 5-6, were subcutaneously injected at a dose of 340 μg/kg into respective groups of Sprague-Dawley rats. Blood samples were taken at 0, 1, 2, 4, 8, 12, 16, 24, 30, and 48 hrs after the injection, and centrifuged to obtain sera. For a control, Filgrastim (Gracin, Jeil Pharmaceutical Co. Ltd. Korea), a commercially available granulocyte colony-stimulating factor, was subcutaneously injected at a dose of 100 μg/kg. Blood samples were taken at 0, 1, 2, 4, 8, 12, 18, 24, 30 and 48 hrs after the injection, and centrifuged to obtain sera. Each sample was analyzed in the same manner as the enzyme immunoassay of Test Example 1.

Data set [6] has as its system leucocytes. Description: In vivo activity: changes in leucocyte level. The following applies: Sprague-Dawley rats. On the procedure:
Sprague-Dawley rats were used as experimental animals and divided into five groups of five each. To the Sprague-Dawley rats, the granulocyte colony-stimulating factor/alpha-1 antitrypsin divariant fusion [T602S: α1AT(P357N, C232S)/G-CSF] prepared in Example 5 was subcutaneously injected at doses of 340 μg/kg and 1,700 μg/kg. To another groups of rats, the granulocyte colony-stimulating factor/alpha-1 antitrypsin trivariant fusion [T602ST: α1AT(P357N, C232S, S359T)/G-CSF] prepared in Example 6 and the granulocyte colony-stimulating factor Filgrastim (Gracin, Jell Pharmaceutical Co. Ltd. Korea) were subcutaneously injected at doses of 1,700 μg/kg and 100 μg/kg, respectively. Blood samples were taken from the tail on 3 days before experiment and on 1, 2, 3, 4 and 5 days after the injection and leucocytes were counted using Hematology Analyzer (Pentra 120).

For data set [7], the system named is Murine myeloblastic NFS-60 cells. The data set is described as follows: In vitro activity in NFS-60 cells (MTS method). Format: cell-based. On the procedure: The rat lymphoma cell line (NB2 cell) was maintained in RPMI1640 supplemented with 10% HS (Horse serum), 10% FBS, 2-mercaptoethanol and antibiotics at 37° C. under a 5% CO2 condition. For 24 hrs before experiment, NB2 cells were incubated in RPMI 1640 supplemented with 10% HS. Thereafter, the NB2 cells were washed once with 1×DPBS (Dulbecco's Phosphate Buffered Saline), and plated at a density of 2×10^4 cells/100 μL/well in 5% HS-supplemented RPMI 1640 in 96-well plates (Corning, U.S.A.) with final volume of 100 μL. A series of concentrations of the samples were added in an amount of 20 μL to each well of the 96-well plates, followed by incubation at 37° C. for 48 hrs under a 5% CO2 condition. Subsequently, 20 μL of an MTS solution (Promega, U.S.A.) was added to each well of the 96-well plates and allowed to react at 37° C. for 3 hrs under a 5% CO2 condition. The reaction was terminated by adding 20 μL of 10% SDS (sodium dodecyl sulfate) to each well. Absorbance was measured at 490 nm using a VersaMax microplate reader (Molecular Device, U.S.A.).
Murine myeloblastic NFS-60 cells were incubated in RPMI 1640 supplemented with 10% FBS, mouse IL-3 and antibiotics at 37° C. under a 5% CO2 condition. The absorbance of the cells was measured at 490 nm in the same manner as in Test Example 4-1.

Changes are numbered by the printed parent chain. Names and notes keep the numbering of the source.

Turning to alpha-1 antitrypsin, the in vivo half-life in data set [1] is 120 to 140 h.
Take “human growth hormone [reference compound]”: in data set [2], the Tmax is 1 h and the “serum half-life (t1/2)” value came out at 0.8 h. Besides, the weight gain entry in data set [3] was “about 10.2%”.
Consider “human interferon alpha [reference compound]”, for which, in data set [4], the Tmax is 1.4 h and the “serum half-life (t1/2)” value came out at 3.4 h.

B1: Filgrastim (protein, chains of the INN, looked up)
chain: MTPLGPASSLPQSFLLKCLEQVRKIQGDGAALQEKLCATYKLCHPEELVLLGHSLGIPWAPLSSCPSQALQLAGCLSQLHSGLFLYQGLLQALEGISPELGPTLDTLQLDVADFATTIWQQMEELGMAPALQPTQGAMPAFASAFQRRAGGVLVASHLQSFLEVSYRVLRHLAQP
notes: Filgrastim (Gracin, Jeil Pharmaceutical), a commercially available granulocyte colony-stimulating factor
As to B1, in data set [5] (100 μg/kg (Filgrastim control)), the time of peak concentration (Tmax) was found to be 1.8 h and the “serum half-life (t1/2)” value stood at 1.8 h. In data set [6] (subcutaneous, 100 μg/kg), the “leucocyte count time course” value is “peak level at Day 1 and then decrease to the base line from Day 2”.

B2: granulocyte colony-stimulating factor/alpha-1 antitrypsin divariant fusion (protein)
chain: EDPQGDAAQKTDTSHHDQDHPTFNKITPNLAEFAFSLYRQLAHQSNSTNIFFSPVSIATAFAMLSLGTKADTHDEILEGLNFNLTEIPEAQIHEGFQELLRTLNQPDSQLQLTTGNGLFLSEGLKLVDKFLEDVKKLYHSEAFTVNFGDTEEAKKQINDYVEKGTQGKIVDLVKELDRDTVFALVNYIFFKGKWERPFEVKDTEEEDFHVDQVTTVKVPMMKRLGMFNIQHSKKLSSWVLLMKYLGNATAIFFLPDEGKLQHLENELTHDIITKFLENEDRRSASLHLPKLSITGTYDLKSVLGQLGITKVFSNGADLSGVTEEAPLKLSKAVHKAVLTIDEKGTEAAGAMFLEAINMSIPPEVKFNKPFVFLMIDQNTKSPLFMGKVVNPTQKGGGGSTPLGPASSLPQSFLLKCLEQVRKIQGDGAALQEKLCATYKLCHPEELVLLGHSLGIPWAPLSSCPSQALQLAGCLSQLHSGLFLYQGLLQALEGISPELGPTLDTLQLDVADFATTIWQQMEELGMAPALQPTQGAMPAFASAFQRRAGGVLVASHLQSFLEVSYRVLRHLAQP
modifications: T602S [alpha-1AT(P357N, C232S)/G-CSF]
notes: G-CSF fused to C-terminus of alpha-1 antitrypsin divariant 2 P357N, C232S
B2: in data set [5] (340 μg/kg), the Tmax is 13.6 h and the “serum half-life (t1/2)” value is 5.1 h. In addition, in data set [6] (subcutaneous, 340 μg/kg), the “leucocyte count time course” value is “peak level on Day 2 and then decrease from Day 3”. The “leucocyte count time course” value in data set [6] (subcutaneous, 1,700 μg/kg) was “remained high until Day 3 and started to decrease on Day 4”. The EC50 in data set [7] turned out to be 0.0781 nM.

B3: granulocyte colony-stimulating factor/alpha-1 antitrypsin trivariant fusion (protein)
chain: B2 chain with S359T
modifications: T602ST [alpha-1AT(P357N, C232S, S359T)/G-CSF]
notes: G-CSF fused to C-terminus of alpha-1 antitrypsin trivariant P357N, C232S, S359T
On to B3, for which, in data set [5] (340 μg/kg), the Tmax came out at 16 h and the “serum half-life (t1/2)” value was 4.5 h. For the same molecule, the “leucocyte count time course” value in data set [6] (subcutaneous, 1,700 μg/kg) is “remained high until Day 3 and started to decrease on Day 4”. In addition, in data set [7], the EC50 was 0.0976 nM.
